Measurements: US6562587 (ASTRA PHARMA, dated 2003)
Non-standard residues stand in square brackets, D forms with d. No end group written: not given here.

B1: Tyr-D-Thr-Gly-Phe-Leu-Thr (DTLET), labelled with tritium (peptide)
peptide: Y[dT]GFLT
modifications: not fully specified
notes: Synthetic delta-selective enkephalin analogue used as the radioligand; also called ^3H-DTLET

Assays:
[1] = biological target: delta opioid receptor naturally expressed by NG 108-15 cells (UniProt P32300); test: Table 1, NG 108-15 column (method not described)
[2] = biological target: T1, K56 receptor (mouse delta opioid receptor encoded by clone K56) (mouse, UniProt P32300 1-372); test: radioligand binding, 1 nM ^3H-DTLET on monolayer Cos-1 cells transfected with K56
T1 construct: Expressed transiently in Cos-1 cells from plasmid pCDM8-K56; 371 amino acids; also called K56 protein; Cos K56

Row | Molecule | PKi [1] | signal over background [2] [fold]
1 | cyclic [D-penicillamine^2, D-penicillamine^5]-enkephalin (peptide) | 8.3 | –
2 | B1 | – | 6
